Target: RBBP4, recombinant, for fluorescence polarization (human), Q09028
Test: fluorescence polarisation; competitive: unlabeled peptide (1.0–0.0 mM series) added to preformed complex of 1 nM FAM tracer and 40 nM RBBP4; 50 mM Tris-HCl pH 7.5, 150 mM NaCl, 0.02% Triton X-100; read after 60 min; ki from IC50

RBBP4, recombinant, for fluorescence polarization (human), Q09028, sequence (Q09028 whole entry): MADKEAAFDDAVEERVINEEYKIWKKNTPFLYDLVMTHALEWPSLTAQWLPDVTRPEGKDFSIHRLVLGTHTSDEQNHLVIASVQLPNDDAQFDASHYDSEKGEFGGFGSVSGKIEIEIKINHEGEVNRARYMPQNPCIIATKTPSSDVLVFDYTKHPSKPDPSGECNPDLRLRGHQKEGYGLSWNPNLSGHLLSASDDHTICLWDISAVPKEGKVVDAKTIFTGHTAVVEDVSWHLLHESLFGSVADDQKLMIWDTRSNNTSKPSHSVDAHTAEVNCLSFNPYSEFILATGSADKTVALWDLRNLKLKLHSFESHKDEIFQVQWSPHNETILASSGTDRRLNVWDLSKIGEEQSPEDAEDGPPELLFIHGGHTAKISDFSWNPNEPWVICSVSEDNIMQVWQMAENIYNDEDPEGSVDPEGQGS

KHRRKQKTPKKF (modifications not checked) [ZNF512B NIM peptide (unlabeled ZNF512B iNIM)]
Ki: 19 nM

— publication PMC11602157, “ZNF512B binds RBBP4 via a variant NuRD interaction motif and aggregates chromatin in a NuRD complex-independent manner” (Nucleic Acids Research, 2024)
